# Measured values reported in the supplement of paper PMC9170038.
# System: MS2 coat protein
# Experiment: apparent KD of MS2 coat protein; designed switch direction (-1 OFF switch, 1 ON switch): -1; higher = weaker reporter binding
# Procedure, shortened: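 For each design, the apparent KD is the median over clusters of curves fitted to normalised cluster fluorescence. Clusters held RNA switches with common flanks, transcribed on Illumina chips by stalled E. coli RNA polymerase. These were titrated with SNAP-549-labelled MS2 coat protein, doubling from 0.7 or 1.5 nM to 3 µM, without input, with 200 uM small-molecule ligand, or with an oligonucleotide input.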
# [1] = input ligand: microRNA oligo, concentration not stated
# [2] = Eterna round: R95, input ligand: microRNA oligo, concentration not stated
Sequence,apparent KD of MS2 coat protein (input ligand: FMN 200 uM) [nM],apparent KD of MS2 coat protein (input ligand: none) [nM],apparent KD of MS2 coat protein [1] [nM],apparent KD of MS2 coat protein [2] [nM]
"UGGUCACAUGAGGAUCACCCAUGUCAGGAUAUCGUCACUGGAGCCUCGGCUCCAGUGACGAGAAGGGACAUAAU [E1/6-A2] (Eterna round: R97, puzzle: Exclusion 1)",267,254,–,–
"UGUAGAGUGGUAGGAUAUCCGGCUGUUUCAGUCGGAGAAGGACCACAGUCACUGGGUCCUUAUAUGGGUGACCAUGUAUCUACU [pwkr exNG1 F6.7] (Eterna round: R96, puzzle: Exclusion NG 1)",558,395,305,–
"UGUCAGAUGGUAGGAUAUCCUUAUCGCGUGUCCCUUUCCUAACAUGAGGAUCACCCAUGUCGGUGGGAGAAGGGCCGUAUGGUG [salish99_ExNG02_R04_038] (Eterna round: R96, puzzle: Exclusion NG 2)",11.5,13.4,11.2,–
UGUGCGUAUGUGAGGAUAUGCUGGUCCUUGGCUCGGCAGAAGGCACAUGAGGAUCACCCAUGUGGUGUCGUACG [salish99_Bmod_ex4_064] (puzzle: Brourd's mod of Exclusion 4),–,–,–,52.1
"UGUGGGUCAGGAUAUUCUAUUUAUUACAUGAGGAUCACCCAUGUGAAUGUACAAGGGUGUGAAGAAGGGACUUGUG [LRO-Excl5-02-mod A17d by Omei] (Eterna round: R97, puzzle: Exclusion 5)",793,2360,–,–
"UGUUGUUACGCAGGAUAUGAGGAUCACCCAUAUAAGGAUAUCGAAAGAGAAGUUCUGAGGAUCACCCAGAAGGGCGGGUUAACA [pwkr exNG2 2xF5 2xFMN.31] (Eterna round: R96, puzzle: Exclusion NG 2)",193,71.1,59,–
"UGUUGUUACGUAGGAUAUCCACCAACAGGUGGAAGGAUAUGUACGCAGAAGGUUCGCCAACAGGCGGAGAAGGACGUGUUAACA [pwkr exNG2 2xF7 2xFMN.28] (Eterna round: R96, puzzle: Exclusion NG 2)",675,385,1110,–
"UGUUUAUAUGAAGGAUAUACUUAACAUGAGGAUCACCCAUGUGGUGUUGUGAGUGAGUGAGUUUAGUAGAAGGUCAAGUAUUUU [JMF's solution 54] (Eterna round: R96, puzzle: Exclusion NG 2)",681,395,373,–
UUAAACGCAGGAUAUACAUUUUUUUUAUUAUCCUCAUAAAUACAUGAGGAUCACCCAUGUAGAAGGGCGAAAUU [Mat - Exclusion 2 - Mod of Hog - D87] (puzzle: Exclusion 2),–,–,–,144
"UUAAAUAAUGUAGGAUAUGCAAGGCGAACCUAAGCAGAAGGACAUGAGGAUCACCCAUGUAAUGCGGUCUGCGUACAGAUCGCA [JL ENG1 1.01] (Eterna round: R96, puzzle: Exclusion NG 1)",59.4,24.2,23.2,–
UUAAAUAGUGUGAGGAUAUGCUGGUCCUUGGAUCAGCAGAAGGCACAUGAGGAUCACCCAUGUAGUUAAUUUUA [Mat - Exclusion 4 - JL Mod - D22] (puzzle: Brourd's mod of Exclusion 4),–,–,–,37.4
"UUAAAUCAUGUAGGAUAUGCGUGGAGAAGCUAUGCAGAAGGACAUGAGGAUCACCCAUGUGCUUCCGUCUGCGUACAGAUGGUA [Mat - Exclusion NG 1 - Mod of JL - D7] (Eterna round: R96, puzzle: Exclusion NG 1)",84.5,19.5,17.1,–
"UUAAAUCAUGUAGGAUAUGCGUGGCGAAGCUAUGCAGAAGGACAUGAGGAUCACCCAUGUGCUUCCGUCUGCGUACAGAUGGAA [JL Eng1 1.08 mod 3] (Eterna round: R96, puzzle: Exclusion NG 1)",81.4,109,80.6,–
"UUAAAUCAUGUAGGAUAUGCGUGGCGAAGCUAUGCAGAAGGACAUGAGGAUCACCCAUGUUCCUGCGUCCGCGUACGGAUGCAA [JL Eng1 1.21 mod] (Eterna round: R96, puzzle: Exclusion NG 1)",167,18.1,16.3,–
"UUAAUACAUGUAGGAUAUGCGUGGCGAAGCUAUGCAGAAGGACAUGAGGAUCACCCAUGUCUCUGCGUCCGCGUACGGAUGCAA [JL Eng1 1.21 mod 5] (Eterna round: R96, puzzle: Exclusion NG 1)",13.9,15.8,11.6,–
UUAAUGUGAGGAUAUCAAGUGUGAUAGAGUAAUGGUAAAUAUGAGAAGGCACAUGAGGAUCACCCAUGUUCUUC [Mat - Exclusion 4 - Mod of JL - D59] (puzzle: Exclusion 4),–,–,–,14
"UUAAUGUGAGGAUAUCAGGUGUGCUAGCGUACUGGUACAUCUGAGAAGGCACAUGAGGAUCACCCAUGUUCCUU [JL-ex4-3.27 Brourd mod] (Eterna round: R96, puzzle: Exclusion 4)",59.4,20.6,15.9,–
UUAAUGUGAGGAUAUCAGGUGUGCUAGCGUACUGGUACAUCUGAGAAGGCACAUGAGGAUCACCCAUGUUCCUU [JL-ex4-3.27 Brourd mod] (puzzle: Exclusion 4),–,–,–,16.2
"UUAAUUAAUUAAGGCUGAAGAUCACAUGAGGAUCACCCAUGUAAGGAUAUCAGCUCGAUUAGAGCUGAGAAGGUACAUGCAGCC [ExNG3/18-B1] (Eterna round: R96, puzzle: Exclusion NG 3)",53.9,319,377,–
"UUAAUUAAUUAAUUAUAAGAUCAACAUGAGGAUCACCCAUGUGAGGAUAUCAGCUCGUUUAGAGCUGAGAAGGCACAAAUAAUU [ExNG3/16-B2] (Eterna round: R96, puzzle: Exclusion NG 3)",208,49.8,45.7,–
"UUAAUUAGCAGGCAAGAUCAUUACAUGAGGAUCACCCAUGUCGAGGAUAUCAGCUCGAUUAGAGCUGAGAAGGCGACAGCCUGC [ExNG3/13-A1] (Eterna round: R96, puzzle: Exclusion NG 3)",1540,382,443,–
"UUACAGCAAGGAUAUACAUGAGGAUCACCCAUGUAUGCAUGUUCGAGAGAGGCCUACGGUAGAAGGUGCAUGUU [EX3 C.11] (Eterna round: R97, puzzle: Exclusion 3)",25.2,39.8,–,–
